According to publication PMC7801515:

Molecular target: P2C-1F11 monoclonal antibody (human)
Test: SPR

**Q.** For “SARS-CoV-2 receptor-binding domain (RBD), residues Arg319 to Lys529 (from UniProt P0DTC2 319-529) (domain or fragment)”, which Kd is on record?
**A.** Its Kd is 1.72 nM.
